According to the supplement of paper PMC10201428:
± gives the standard deviation of the averaged measurements.

Experiments:
[1] = test system: VchCAST RNA-guided transposition machinery (E. coli BL21(DE3) host, lacZ target); test: relative integration efficiency (T-RL orientation) vs wild-type transposon end (log2 (normalized fold change)); transposon end mutated: right end (5 bp flank + 75 bp right end); higher = more efficient transposition
Outline: (§1)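 Each barcoded pool, 1549 left-end or 1849 right-end transposon variants in a pUC57 mini-transposon donor, went into E. coli BL21(DE3) with a T7-driven effector plasmid (CRISPR array, tniQ-cas8-cas7-cas6, tnsA-tnsB-tnsC). Plates contained 0.1 mM IPTG and were held at 37°C for 18 h. Input plasmids and genomic integration junctions were PCR-amplified and read by Illumina sequencing, with two biological output replicates and four reference barcodes. Relative integration efficiency is the fold change of output over input barcode abundance, normalised to the reference barcodes and log-transformed.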

[2] = test system: VchCAST RNA-guided transposition machinery (E. coli BL21(DE3) host, lacZ target); test: relative integration efficiency (T-LR orientation) vs wild-type transposon end (log2 (normalized fold change)); transposon end mutated: right end (5 bp flank + 75 bp right end); higher = more efficient transposition
Outline: as §1

| Sequence | relative integration efficiency (log2) [1] | relative integration efficiency (log2) [2] |
| --- | --- | --- |
| ACATTTGTTGATACAACCATAAAAGGATAATTACACCCATAAATTGATAATTATCCCACCCCATTTAACTATAACGCTCTGATCATAGTCAGACCAACATTGCTACGACCCGTATTCGCACCGACAC | -0.775 ± 0.14 | 2.28 ± 0.097 |
| ACATTTGTTGATACAACCATAAAAGGATAATTACACCCATCAATTGATAATTATCACACCCAATTTAACTATAACGCTCTGATCATAGTCAGACCAACATTGCTACGACCCGTATTCGCACCGACAC | -2.32 ± 0.29 | 1.06 ± 0.24 |
| ACATTTGTTGATACAACCATAAAAGGATAATTACACCCATCAATTGATAATTATCACACCCCATTTAACTATAACGCTCTGATCATAGTCAGACCAACATTGCTACGACCCGTATTCGCACCGACAC | -2.2 ± 0.15 | 1.27 ± 0.19 |
| ACATTTGTTGATACAACCATAAAAGGATAATTACACCCATCAATTGATAATTATCCCACCCAATTTAACTATAACGCTCTGATCATAGTCAGACCAACATTGCTACGACCCGTATTCGCACCGACAC | -1.89 ± 0.25 | 0.901 ± 0.1 |
| ACATTTGTTGATACAACCATAAAAGGATAATTACACCCATCAATTGATAATTATCCCACCCCATTTAACTATAACGCTCTGATCATAGTCAGACCAACATTGCTACGACCCGTATTCGCACCGACAC | -1.79 ± 0.17 | 0.942 ± 0.22 |
| ACATTTGTTGATACAACCATAAAAGGATAATTACCCCCATAAATTGATAATTATCACACCCAATTTAACTATAACGCTCTGATCATAGTCAGACCAACATTGCTACGACCCGTATTCGCACCGACAC | -1.55 ± 0.26 | 1.37 ± 0.093 |
| ACATTTGTTGATACAACCATAAAAGGATAATTACCCCCATAAATTGATAATTATCACACCCCATTTAACTATAACGCTCTGATCATAGTCAGACCAACATTGCTACGACCCGTATTCGCACCGACAC | -1.46 ± 0.44 | 1.61 ± 0.2 |
| ACATTTGTTGATACAACCATAAAAGGATAATTACCCCCATAAATTGATAATTATCCCACCCAATTTAACTATAACGCTCTGATCATAGTCAGACCAACATTGCTACGACCCGTATTCGCACCGACAC | -0.765 ± 0.32 | 2.19 ± 0.4 |
| ACATTTGTTGATACAACCATAAAAGGATAATTACCCCCATAAATTGATAATTATCCCACCCCATTTAACTATAACGCTCTGATCATAGTCAGACCAACATTGCTACGACCCGTATTCGCACCGACAC | -1.2 ± 0.22 | 1.78 ± 0.039 |
| ACATTTGTTGATACAACCATAAAAGGATAATTACCCCCATCAATTGATAATTATCACACCCAATTTAACTATAACGCTCTGATCATAGTCAGACCAACATTGCTACGACCCGTATTCGCACCGACAC | -2.86 ± 0.32 | -0.104 ± 0.42 |
| ACATTTGTTGATACAACCATAAAAGGATAATTACCCCCATCAATTGATAATTATCACACCCCATTTAACTATAACGCTCTGATCATAGTCAGACCAACATTGCTACGACCCGTATTCGCACCGACAC | -3.19 ± 0.27 | -0.157 ± 0.13 |
| ACATTTGTTGATACAACCATAAAAGGATAATTACCCCCATCAATTGATAATTATCCCACCCAATTTAACTATAACGCTCTGATCATAGTCAGACCAACATTGCTACGACCCGTATTCGCACCGACAC | -0.787 ± 0.53 | 1.91 ± 0.034 |
| ACATTTGTTGATACAACCATAAAAGGATAATTACCCCCATCAATTGATAATTATCCCACCCCATTTAACTATAACGCTCTGATCATAGTCAGACCAACATTGCTACGACCCGTATTCGCACCGACAC | -2.87 ± 0.26 | -0.233 ± 0.32 |
| ACATTTGTTGATACAACCATAAAAGGATAATTCACCCATAAATTGATAATTATCACACCCACATTTAACTATAACGCTCTGATCATAGTCAGACCAACATTGCTACGACCCGTATTCGCACCGACAC | -2.38 ± 0.38 | 0.902 ± 0.15 |
| ACATTTGTTGATACAACCATAAAAGGATAATTCACCCCTAAATTGATAATTATCACACCCACATTTAACTATAACGCTCTGATCATAGTCAGACCAACATTGCTACGACCCGTATTCGCACCGACAC | -4.49 ± 0.25 | -0.705 ± 0.48 |
| ACATTTGTTGATACAACCATAAAAGGATCATTACACCCATAAATTGATAATTATCACACCCAATTTAACTATAACGCTCTGATCATAGTCAGACCAACATTGCTACGACCCGTATTCGCACCGACAC | -2.03 ± 0.18 | 1.34 ± 0.27 |
| ACATTTGTTGATACAACCATAAAAGGATCATTACACCCATAAATTGATAATTATCACACCCCATTTAACTATAACGCTCTGATCATAGTCAGACCAACATTGCTACGACCCGTATTCGCACCGACAC | -2.29 ± 0.32 | 1.27 ± 0.23 |
| ACATTTGTTGATACAACCATAAAAGGATCATTACACCCATAAATTGATAATTATCCCACCCAATTTAACTATAACGCTCTGATCATAGTCAGACCAACATTGCTACGACCCGTATTCGCACCGACAC | -1.69 ± 0.47 | 1.75 ± 0.057 |

| Sequence | relative integration efficiency (log2) [1] | relative integration efficiency (log2) [2] |
| --- | --- | --- |
| ACATTTGTTGATACAACCATAAAAGGATCATTACACCCATAAATTGATAATTATCCCACCCCATTTAACTATAACGCTCTGATCATAGTCAGACCAACATTGCTACGACCCGTATTCGCACCGACAC | -2.12 ± 0.38 | 1.38 ± 0.021 |
| ACATTTGTTGATACAACCATAAAAGGATCATTACACCCATCAATTGATAATTATCACACCCAATTTAACTATAACGCTCTGATCATAGTCAGACCAACATTGCTACGACCCGTATTCGCACCGACAC | -3.44 ± 0.37 | -0.241 ± 0.022 |
| ACATTTGTTGATACAACCATAAAAGGATCATTACACCCATCAATTGATAATTATCACACCCCATTTAACTATAACGCTCTGATCATAGTCAGACCAACATTGCTACGACCCGTATTCGCACCGACAC | -3.25 ± 0.32 | 0.228 ± 0.13 |
| ACATTTGTTGATACAACCATAAAAGGATCATTACACCCATCAATTGATAATTATCCCACCCAATTTAACTATAACGCTCTGATCATAGTCAGACCAACATTGCTACGACCCGTATTCGCACCGACAC | -2.99 ± 0.16 | 0.119 ± 0.061 |
| ACATTTGTTGATACAACCATAAAAGGATCATTACACCCATCAATTGATAATTATCCCACCCCATTTAACTATAACGCTCTGATCATAGTCAGACCAACATTGCTACGACCCGTATTCGCACCGACAC | -3.29 ± 0.28 | -0.014 ± 0.4 |
| ACATTTGTTGATACAACCATAAAAGGATCATTACCCCCATAAATTGATAATTATCACACCCAATTTAACTATAACGCTCTGATCATAGTCAGACCAACATTGCTACGACCCGTATTCGCACCGACAC | -2.28 ± 0.24 | 0.679 ± 0.16 |
| ACATTTGTTGATACAACCATAAAAGGATCATTACCCCCATAAATTGATAATTATCACACCCCATTTAACTATAACGCTCTGATCATAGTCAGACCAACATTGCTACGACCCGTATTCGCACCGACAC | -2.55 ± 0.35 | 1.16 ± 0.12 |
| ACATTTGTTGATACAACCATAAAAGGATCATTACCCCCATAAATTGATAATTATCCCACCCAATTTAACTATAACGCTCTGATCATAGTCAGACCAACATTGCTACGACCCGTATTCGCACCGACAC | -2.19 ± 0.29 | 0.912 ± 0.11 |
| ACATTTGTTGATACAACCATAAAAGGATCATTACCCCCATAAATTGATAATTATCCCACCCCATTTAACTATAACGCTCTGATCATAGTCAGACCAACATTGCTACGACCCGTATTCGCACCGACAC | -2.25 ± 0.25 | 0.775 ± 0.15 |
| ACATTTGTTGATACAACCATAAAAGGATCATTACCCCCATCAATTGATAATTATCACACCCAATTTAACTATAACGCTCTGATCATAGTCAGACCAACATTGCTACGACCCGTATTCGCACCGACAC | -4.48 ± 0.1 | -1.13 ± 0.29 |
| ACATTTGTTGATACAACCATAAAAGGATCATTACCCCCATCAATTGATAATTATCACACCCCATTTAACTATAACGCTCTGATCATAGTCAGACCAACATTGCTACGACCCGTATTCGCACCGACAC | -4.59 ± 0.85 | -1.38 ± 0.048 |
| ACATTTGTTGATACAACCATAAAAGGATCATTACCCCCATCAATTGATAATTATCCCACCCAATTTAACTATAACGCTCTGATCATAGTCAGACCAACATTGCTACGACCCGTATTCGCACCGACAC | -3.59 ± 0.36 | -0.858 ± 0.08 |
| ACATTTGTTGATACAACCATAAAAGGATCATTACCCCCATCAATTGATAATTATCCCACCCCATTTAACTATAACGCTCTGATCATAGTCAGACCAACATTGCTACGACCCGTATTCGCACCGACAC | -4.43 ± 0.28 | -1.31 ± 0.15 |
| ACATTTGTTGATACAACCATAAAAGGATCATTCACCCATAAATTGATAATTATCACACCCACATTTAACTATAACGCTCTGATCATAGTCAGACCAACATTGCTACGACCCGTATTCGCACCGACAC | -3.13 ± 0.14 | -0.0129 ± 0.14 |
| ACATTTGTTGATACAACCATAAAAGGATCATTCACCCCTAAATTGATAATTATCACACCCACATTTAACTATAACGCTCTGATCATAGTCAGACCAACATTGCTACGACCCGTATTCGCACCGACAC | -4.73 ± 0.18 | -1.36 ± 0.36 |
| ACATTTGTTGATACAACCATAAAAGGATTATTACACCCATTAATTGATAATTATCACACCCAATTTAACTATAACGCTCTGATCATAGTCAGACCAACATTGCTACGACCCGTATTCGCACCGACAC | -2.02 ± 0.28 | 1.27 ± 0.069 |
| ACATTTGTTGATACAACCATAAAAGTATAATTACACCCATAAATTGATAATTATCACACCCATAAATTGATATTGCCTCTGATCATAGTCAGACCAACATTGCTACGACCCGTATTCGCACCGACAC | -0.954 ± 0.16 | -0.606 ± 0.35 |
